The values below come from the Immune Epitope Database (IEDB).

Some results are limits rather than exact numbers.

One test concerns the target HLA-A*03:01. In words: IEDB peptide-MHC binding, purified MHC/direct/fluorescence; filed as Kd, often an IC50 or EC50 that approximates it; ≥ and ≤ were set here for values at or beyond the usual limits of such assays.
A further test deals with HLA-A*69:01. The test is described as above.
Another test has as its target HLA-A*31:01. The description is as above.
For the next test, the target named is HLA-B*15:01. The description is as above.
The target in the next test is HLA-A*30:01. The test is described as above.
Another test concerns the target HLA-B*44:02. The description is as above. As to conditions: source organism: Brucella abortus.
A further test has as its target HLA-A*26:01. The test is described as above.
The target in another test is HLA-B*40:01. The description is as above. As to conditions: source organism: Brucella abortus.
For another test, the target named is HLA-B*07:02. The description is as above. Conditions: source organism: Brucella abortus.
Test [1] addresses HLA-A*02:01. The description is as above.
Another test addresses HLA-A*01:01. The test is described as above. Conditions: source organism: Brucella abortus.
In another test the target is HLA-B*58:01. The description is as above. As to conditions: source organism: Brucella abortus.
The target in another test is HLA-B*08:01. The description is as above. As to conditions: source organism: Brucella melitensis.
The next test addresses HLA-B*27:05. The test is described as above. As to conditions: source organism: Brucella abortus.
The next test deals with HLA-C*15:02. Described as above. Conditions: source organism: Mus musculus.
A further test has as its target HLA-C*06:02. Described as above. Conditions: source organism: Mus musculus.
For test [2], the target named is HLA-A*02:01. In words: IEDB peptide-MHC binding, purified MHC/competitive/radioactivity; ≥ and ≤ were set here for values at or beyond the usual limits of such assays.
Another test concerns the target HLA-B*48:01. In words: IEDB peptide-MHC binding, purified MHC/competitive/fluorescence; filed as Kd, often an IC50 or EC50 that approximates it; ≥ and ≤ were set here for values at or beyond the usual limits of such assays. Conditions: source organism: Giardia lamblia ATCC 50803.
For another test, the target named is HLA-B*27:03. In words: IEDB peptide-MHC binding, purified MHC/direct/fluorescence; filed as Kd, often an IC50 or EC50 that approximates it; ≥ and ≤ were set here for values at or beyond the usual limits of such assays.
The target of another test is HLA-B*57:01. The description is as above.
A further test concerns the target HLA-A*02:03. The description is as above.
The target in a further test is HLA-A*02:12. The description is as above.
The target in the next test is HLA-A*02:19. The test is described as above.
For another test, the target named is HLA-A*02:16. Described as above.
The target in a further test is HLA-A*02:11. The description is as above.
The target in another test is HLA-A*29:02. The test is described as above. As to conditions: source organism: Encephalitozoon cuniculi GB-M1.
In the next test the target is HLA-B*18:01. The test is described as above.
For test [3], the target named is HLA-B*51:01. The description is as above.
Another test deals with HLA-B*39:01. The description is as above.
The next test concerns the target HLA-B*15:17. Described as above.
The target in the next test is HLA-A*24:03. Described as above.
Another test has as its target HLA-B*15:42. In words: IEDB peptide-MHC binding, purified MHC/competitive/fluorescence; filed as Kd, often an IC50 or EC50 that approximates it; ≥ and ≤ were set here for values at or beyond the usual limits of such assays. Conditions: source organism: Encephalitozoon cuniculi GB-M1.
A further test concerns the target HLA-B*45:06. Described as above. Conditions: source organism: Encephalitozoon cuniculi GB-M1.
The target of the next test is HLA-B*83:01. The description is as above. Conditions: source organism: Encephalitozoon cuniculi GB-M1.
The target of a further test is HLA-A*11:01. In words: IEDB peptide-MHC binding, purified MHC/direct/fluorescence; filed as Kd, often an IC50 or EC50 that approximates it; ≥ and ≤ were set here for values at or beyond the usual limits of such assays. As to conditions: source organism: Salmonella enterica subsp. enterica serovar Choleraesuis str. SC-B67.
A further test concerns the target HLA-C*07:02. The test is described as above. As to conditions: source organism: Shigella boydii Sb227.
Test [4] has as its target HLA-B*51:01. In words: IEDB peptide-MHC binding, purified MHC/competitive/fluorescence; filed as Kd, often an IC50 or EC50 that approximates it; ≥ and ≤ were set here for values at or beyond the usual limits of such assays. As to conditions: source organism: Shigella boydii Sb227.
Another test addresses HLA-B*46:01. In words: IEDB peptide-MHC binding, purified MHC/direct/fluorescence; filed as Kd, often an IC50 or EC50 that approximates it; ≥ and ≤ were set here for values at or beyond the usual limits of such assays.
Another test addresses HLA-A*68:02. Described as above.
Where [5] appears, read: source organism: Brucella abortus.
Where [6] appears, read: source organism: Encephalitozoon cuniculi GB-M1.
Where [7] appears, read: source organism: Salmonella enterica.
The mark [8] stands for this setting: source organism: Vibrio parahaemolyticus AQ3810.
Setting [9] is: source organism: Salmonella enterica subsp. enterica serovar Virchow.

The Kd is the free concentration of one partner at which half of the binding sites on the other are occupied at equilibrium, for simple one-to-one binding. Low values mean higher affinity, high ones lower affinity. For EKPPVRPIF, the Kd with HLA-A*03:01 (setting [5]) was at least 20 µM; with HLA-A*69:01 (setting [5]), at least 20 µM; with HLA-A*31:01 (setting [5]), at least 20 µM; with HLA-B*15:01 (setting [5]) it was at least 20 µM; in the test with HLA-A*30:01 (source organism: Brucella melitensis), 8.74 µM; with HLA-B*44:02 it was at least 20 µM. The Kd with HLA-A*26:01 (setting [5]), with HLA-B*40:01, in the test with HLA-B*07:02, with HLA-A*02:01 [1] (setting [5]), in the test with HLA-A*01:01 and with HLA-B*58:01 was at least 20 µM each time. For the same sequence, the results for the Kd with HLA-B*08:01 and with HLA-B*27:05 were 5.61 µM and at least 20 µM, respectively.

With LWFRNHFVF, the Kd in the test with HLA-C*15:02 and with HLA-C*06:02 was at least 20 µM each time.

One may read the IC50 as the midpoint of a concentration-inhibition curve. Take FLCKQYLNL: the IC50 with HLA-A*02:01 [2] (source organism: Hepatitis B virus) was 0.029 µM.

GQPHSLASL: the Kd with HLA-B*48:01 was 0.149 µM.

With RQASIELPSM, the IC50 in the test with HLA-A*02:01 [2] (source organism: Homo sapiens) was 1.77 µM.

For VLYRYGSFSV, the IC50 with HLA-A*02:01 [2] (source organism: Homo sapiens) is 0.0132 µM.

Turning to FSFFMNENF, the Kd in the test with HLA-A*03:01 (setting [6]), with HLA-B*27:03 (setting [6]), with HLA-B*57:01 (setting [6]), in the test with HLA-A*02:03 (setting [6]), in the test with HLA-A*26:01 (setting [6]) and with HLA-A*02:12 (setting [6]) was at least 20 µM in each case. Further, the Kd with HLA-A*02:19 (setting [6]), with HLA-A*02:16 (setting [6]), with HLA-A*02:11 (setting [6]), with HLA-A*02:01 [1] (setting [6]), in the test with HLA-A*29:02 and in the test with HLA-B*18:01 (setting [6]) was at least 20 µM each time. The Kd is at least 20 µM with HLA-B*51:01 [3] (setting [6]); at least 20 µM with HLA-B*39:01 (setting [6]); at most 0.001 µM with HLA-B*15:17 (setting [6]); at least 20 µM with HLA-A*24:03 (setting [6]); at least 5 µM with HLA-B*15:42; at least 5 µM with HLA-B*45:06. Also, the Kd with HLA-B*83:01 was at least 5 µM.

Turning to ALYIPPYEL, the half-maximal inhibitory concentration (IC50) in the test with HLA-A*02:01 [2] (source organism: Rhinovirus A) worked out at 0.586 µM.

In the case of RTAKVRAFH, the Kd with HLA-A*03:01 (setting [7]) was determined as 0.241 µM; in the test with HLA-A*31:01 (setting [7]), 0.15 µM; with HLA-A*30:01 (source organism: Salmonella enterica subsp. enterica serovar Choleraesuis str. SC-B67), 0.032 µM; with HLA-A*11:01 it was 0.069 µM.

In the case of FPAWFAWIF, the Kd with HLA-C*07:02 and with HLA-B*51:01 [4] was at least 20 µM each time.

On to RLDKPLWLH, for which the dissociation constant (Kd) with HLA-A*69:01 (setting [8]), in the test with HLA-B*46:01 (setting [8]), with HLA-B*27:03 (setting [8]), with HLA-B*15:01 (setting [8]), with HLA-A*68:02 (setting [8]) and with HLA-B*57:01 (setting [8]) was at least 20 µM each time. Moreover, the Kd with HLA-A*02:03 (setting [8]), with HLA-A*26:01 (setting [8]), in the test with HLA-A*02:12 (setting [8]), in the test with HLA-A*02:19 (setting [8]), in the test with HLA-A*02:16 (setting [8]) and with HLA-A*02:01 [1] (setting [8]) was at least 20 µM each time. The Kd in the test with HLA-B*18:01 (setting [8]), with HLA-B*51:01 [3] (setting [8]) and with HLA-B*39:01 (setting [8]) was at least 20 µM throughout.

On to SLYNLVAVL, for which the IC50 with HLA-A*02:01 [2] (source organism: Human immunodeficiency virus 1) turned out to be 0.027 µM.

For CTWPEASRY, the Kd with HLA-A*03:01 (setting [9]), with HLA-A*69:01 (setting [9]), in the test with HLA-B*46:01 (setting [9]), with HLA-B*27:03 (setting [9]), with HLA-A*68:02 (setting [9]) and with HLA-A*02:03 (setting [9]) was at least 20 µM in each case. Besides, the Kd with HLA-A*02:12 (setting [9]), with HLA-A*02:19 (setting [9]), in the test with HLA-A*02:16 (setting [9]), with HLA-A*02:11 (setting [9]), with HLA-A*02:01 [1] (setting [9]) and with HLA-B*51:01 [3] (setting [9]) was at least 20 µM in each case. Further, the Kd with HLA-B*39:01 (setting [9]) is at least 20 µM; with HLA-B*15:17 (setting [9]), 0.026 µM; in the test with HLA-A*24:03 (setting [9]), at least 20 µM.
